From paper PMC2737543, “The crystal structure of Haloferax volcanii proliferating cell nuclear antigen reveals unique surface charge characteristics due to halophilic adaptation” (BMC Structural Biology, 2009) come the findings set out here.

This series deals with the molecule itself. Kind of series: SEC; 10/300 Superdex 200, 50 mM HEPES pH 7.0, KCl 0.2 to 3.0 M (and equivalent NaCl); protein incubated 4 hours in the buffer before loading; 0.5 ml/min; calibrated with molecular weight standards.

B1: Haloferax volcanii proliferating cell nuclear antigen (natural protein)
chain: MFKAIVSAATLRDALDSVSVLVDECKIRLNEESLSIRAVDPANVGMVDLTLDAAAFESYEAHGGVIGVNLSRLEEVAGMAGAGDLIHLTLDEETRKLNIRIDGLSYTLALIDPDSIRQEPDIPDLDLAANIVLEGTHLDRGIKAADMVSDHIRLRVDGAEETFHIEAEGDTDDVDLSLPPADLISIEAGAADSLFSLDYLKDMNKAIPTDAEVTVELGEEFPVKLHYQIAEGMGTITYMLAPRIQSD
notes: Homotrimer; No tag is mentioned; In the model the N-terminal methionine is missing and the C-terminus is not modelled from residue 244; also called HvPCNA; H. volcanii PCNA; source: E. coli B834 (DE3), purified (ammonium sulphate precipitation, Superdex 200, Q-sepharose FF)
Usually stoichiometry N stands for the number of molecules, sites or subunits per partner or assembly. In the case of B1, the “stoichiometry N” value is 3.
